In patent publication US6974798B2, “Treatment of balance impairments” (Genentech, Inc., priority 1995, dated 2005):
Where a chain is given by its changes, count along the chain named. Numbers in names are those of the source. Entries after “also recorded” stand apart in the source; their conditions may differ.

Tests used:
[1] = cited from earlier work
[2] = test system: vestibular ganglion neurons (VGNs); experiment: VGN survival in dissociated cell culture, serum-free medium, 2 days; format: cell-based, rat; conditions: for survival-promoting effect on VGNs: 10 ng/ml added at plating
Description: (§1) The effects of trkB or trkC agonists to enhance neuronal survival was determined using VGNs in cell culture. VGN cell culture was prepared as follows. Vestibular ganglia were dissected from postnatal day 5 (P5) Wistar rats and were incubated in a mixture of 0.125% trypsin and 0.125% collagenase for 25 min at 37° C. The enzyme was inactivated with a mixture of 0.005% soybean trypsin inhibitor (Sigma) and 0.005% DNase (Worthington) before trituration with 0.05% DNase in Eagle's Basal Medium (“BME”). After the undissociated tissues were separated by filtering with a Nylon meshwork (33 μm in pore size), the dissociated cells were preplated on a 35 mm untreated tissue culture dish for 25 min to enrich the neuronal population. Under these experimental procedures, about 3-5% of the cell population were vestibular ganglion neurons (VGNs) as determined by immunocytochemistry with a monoclonal antibody (N52; Boehringer) against neurofilament (200 kd). The cell suspension was finally plated on polylysine (500 μg/ml)laminin (20 μg/ml) coated 16-well LabTek slides in 200 μl of serum-free medium (BME plus serum-free supplement (Sigma I-1884), 1% BSA, 2 mM glutamine, and 5 mg/ml glucose) containing no antibiotics. Cells were plated at a density of 100,000/well.
All human recombinant neurotrophins (obtained from Genentech, Inc.) were added to the cultures at the time of plating.
(§2) Cell counts and data analysis were performed as follows. After 2 days in culture, viable VGNs were identified by labeling with the neurofilament monoclonal antibody N52 and counted using a grid ocular reticule covering an area of 1 mm^2 under a Zeiss Axiophot microscope. For each culture, about 10 randomly selected fields were counted. In these experiments, cell counts were performed in the same way for control cultures. Data were collected from triplet cultures for each of the experimental groups. Data were then normalized as a percentage of the viable VGNs in the control cultures in each of the experiments.
The effect of neurotrophins on cell survival was determined on VGNs which were dissociated from postnatal day 5 (P5) rat vestibular ganglia and plated in defined serum-free medium. Neurofilament protein immunocytochemistry using bright field microscopy was performed in the VGN cultures in serum-free medium in the absence or presence of 10 ng/ml of NT-4/5. In control cultures in serum-free medium without neurotrophins, about 35% of VGNs survived after 2 days. […] The survival-promoting effects of NT-4/5 on cultured VGNs were dose-dependent (FIG. 1).

[3] = test system: vestibular ganglion neurons (VGNs); experiment: Protection of cultured VGNs from cisplatin neurotoxicity; format: cell-based, rat; conditions: for protective effect against cisplatin neurotoxicity: 1, 2 or 4 μg/ml cisplatin, 10 ng/ml factor, 2 days
Description: as §1, §2
(§3) The ability of trkB or trkC agonists to protect neurons from ototoxicity was determined using VGNs in cell culture. […] All human recombinant neurotrophins (Genentech, Inc.) were added to the cultures at the time of plating. To block the effects of the neurotrophins, 1 μg/ml of trkB-IgG or trkC-IgG (kindly provided by Dr. Dave Shelton), specific antagonists for NT-4/5 (and BDNF) or NT-3, respectively (Shelton et al., 1995), was added to some of the experimental cultures at the same time when neurotrophins were added. […] In other experiments, epidermal growth factor (EGF), basic fibroblast growth factor (βFGF) and insulin-like growth factor-1 (IGF-1) were added to the culture at the time of plating at a concentration of 10 ng/ml. […] In these experiments, cell counts were performed in the same way for control cultures.

[4] = biological target: trkC receptor (Homo sapiens, UniProt Q16288); conditions: cited from earlier work; for trkC binding of NT-3 mutants: relative to NT-3
[5] = biological target: trkB receptor (Homo sapiens, UniProt Q16620); conditions: naturally occurring NGF versus BDNF; cited from earlier work
[6] = test system: vestibular ganglion neurons (VGNs); experiment: Protection of cultured VGNs against gentamicin neurotoxicity; format: cell-based, rat; conditions: FIG. 5; for protective effect against gentamicin neurotoxicity: 1, 2 or 3 mg/ml gentamicin, 10 ng/ml factor, 2 days
Description: as §1, §2, §3

[7] = test system: hair cells; conditions: Warchol et al., 1993, Lefebvre et al.; cited from earlier work
[8] = test system: vestibular ganglion neurons (VGNs); experiment: Ototoxin-induced cell death of VGNs in culture; format: cell-based, rat
Description: The ability of trkB or trkC agonists to protect neurons from ototoxicity was determined using VGNs in cell culture. […] All human recombinant neurotrophins (Genentech, Inc.) were added to the cultures at the time of plating. […]

[9] = test system: vestibular ganglion neurons (VGNs); experiment: Blocking of neurotrophin survival-promoting effects by trkB-IgG / trkC-IgG in VGN culture; format: cell-based, rat; conditions: for effect on VGN cultures by themselves (without neurotrophin): 1 μg/ml, alone; for effect of trkB-IgG and trkC-IgG together on the effects of NT-4/5 and NT-3: both fusion proteins together
Description: as §1, §2
TrkB-IgG and trkC-IgG have been previously reported to be specific antagonists for NT-4/5 (or BDNF) and NT-3, respectively (Shelton et al., 1995). To confirm that the survival-promoting effects of NT-4/5, BDNF and NT-3 were specific, trkB-IgG or trkC-IgG fusion protein was added to the culture along with NT-4/5, BDNF or NT-3. All human recombinant neurotrophins (Genentech, Inc.) were added to the cultures at the time of plating. To block the effects of the neurotrophins, 1 μg/ml of trkB-IgG or trkC-IgG (kindly provided by Dr. Dave Shelton), specific antagonists for NT-4/5 (and BDNF) or NT-3, respectively (Shelton et al., 1995), was added to some of the experimental cultures at the same time when neurotrophins were added.

[10] = culture containing cisplatin, FIG. 4

Chain of trkC receptor (Q16288 32-839): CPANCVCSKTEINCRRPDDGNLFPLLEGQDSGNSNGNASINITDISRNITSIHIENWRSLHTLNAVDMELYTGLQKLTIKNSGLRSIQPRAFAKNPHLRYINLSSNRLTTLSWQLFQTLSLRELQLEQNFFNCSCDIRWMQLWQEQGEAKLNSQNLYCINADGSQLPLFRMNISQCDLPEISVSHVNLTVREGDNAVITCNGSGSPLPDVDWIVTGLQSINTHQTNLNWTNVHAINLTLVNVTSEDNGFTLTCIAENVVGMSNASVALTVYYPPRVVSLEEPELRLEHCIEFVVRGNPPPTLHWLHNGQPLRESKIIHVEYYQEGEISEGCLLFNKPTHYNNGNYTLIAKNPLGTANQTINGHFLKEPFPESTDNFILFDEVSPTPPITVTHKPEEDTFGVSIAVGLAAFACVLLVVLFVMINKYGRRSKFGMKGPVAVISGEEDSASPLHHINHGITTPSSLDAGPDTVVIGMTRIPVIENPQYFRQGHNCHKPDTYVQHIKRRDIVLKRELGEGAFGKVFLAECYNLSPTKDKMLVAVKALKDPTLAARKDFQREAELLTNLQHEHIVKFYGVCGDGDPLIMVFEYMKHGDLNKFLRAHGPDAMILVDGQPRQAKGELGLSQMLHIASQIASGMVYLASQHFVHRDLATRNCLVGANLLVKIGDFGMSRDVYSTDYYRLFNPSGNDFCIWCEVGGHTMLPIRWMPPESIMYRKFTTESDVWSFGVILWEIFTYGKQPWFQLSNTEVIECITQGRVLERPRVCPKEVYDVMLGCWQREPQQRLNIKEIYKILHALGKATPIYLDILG
Chain of trkB receptor (Q16620 32-822): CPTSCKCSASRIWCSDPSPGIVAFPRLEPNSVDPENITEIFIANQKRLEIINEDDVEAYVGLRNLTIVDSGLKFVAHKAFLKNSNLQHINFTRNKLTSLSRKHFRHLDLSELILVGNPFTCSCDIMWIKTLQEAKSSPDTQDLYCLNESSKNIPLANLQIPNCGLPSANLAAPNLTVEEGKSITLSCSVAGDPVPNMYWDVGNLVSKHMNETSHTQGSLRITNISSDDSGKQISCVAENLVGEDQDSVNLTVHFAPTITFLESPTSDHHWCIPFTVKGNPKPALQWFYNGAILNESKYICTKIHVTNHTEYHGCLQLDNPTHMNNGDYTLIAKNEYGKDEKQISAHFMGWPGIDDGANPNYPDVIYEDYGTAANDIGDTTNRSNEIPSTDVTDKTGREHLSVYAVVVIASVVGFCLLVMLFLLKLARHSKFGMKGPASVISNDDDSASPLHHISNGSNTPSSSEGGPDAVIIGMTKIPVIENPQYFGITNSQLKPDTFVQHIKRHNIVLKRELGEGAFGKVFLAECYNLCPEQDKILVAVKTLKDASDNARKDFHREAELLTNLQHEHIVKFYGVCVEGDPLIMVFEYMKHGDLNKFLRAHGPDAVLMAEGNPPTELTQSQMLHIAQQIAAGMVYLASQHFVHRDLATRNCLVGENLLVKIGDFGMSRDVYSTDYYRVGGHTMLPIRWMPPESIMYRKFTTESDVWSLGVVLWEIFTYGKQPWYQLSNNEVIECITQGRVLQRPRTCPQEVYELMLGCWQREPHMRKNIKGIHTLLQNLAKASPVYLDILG

## [H]/N=C(/N)N[C@H]1[C@H](O)[C@@H](O)[C@H](O[C@@H]2O[C@@H](C)[C@](O)(C=O)[C@H]2O[C@@H]2O[C@@H](CO)[C@H](O)[C@@H](O)[C@@H]2NC)[C@@H](N/C(N)=N\[H])[C@@H]1O [streptomycin]
[1]; 1 gram per day
  incidence of vestibular impairment: 25%
[1]; 2 grams daily for 60 to 120 days
  patients displaying some vestibular impairment: ~75%

## EGF: epidermal growth factor
[2]; 2 days, FIG. 2
  survival-promoting effect on VGNs: not affected; also recorded: did not produce significant effects

## IGF-1: insulin-like growth factor-1
[2]; 2 days, FIG. 2
  survival-promoting effect on VGNs: not affected; also recorded: did not produce significant effects

## NGF: human recombinant nerve growth factor, ligand of trkA
[3]; FIG. 4
  protective effect against cisplatin neurotoxicity: no protective effects
[4]; naturally occurring NGF versus NT-3
  KD at trkC relative to NT-3 (fold lower): 500-1000 fold
[5]
  KD at trkB relative to BDNF (fold lower): 500-1000 fold
[6]
  protective effect against gentamicin neurotoxicity: showed no effect
[2]; 2 days, FIG. 2
  survival-promoting effect on VGNs: did not show any detectable effect; also recorded: did not produce significant effects

## R31A: NT-3 mutant with mutation at position R31 to alanine
[4]
  trkC binding of NT-3 mutants: increased trkC binding

## gentamicin
[7]
  concentrations needed to destroy hair cells: 500 to 1000 µg/mL
[8]; 3 mgiml of gentamicin
  VGN death: a majority of VGNs died
[8]; added at plating at various concentrations, FIGS. 4 and 5
  inhibition of VGN survival by the ototoxin: dose-dependent inhibition of VGN survival
[8]; present experiments
  concentrations at which induced VGN cell death was observed: 1000 to 3000 µg/mL

## trkB-IgG: trkB-IgG fusion protein, specific antagonist for NT-4/5 and BDNF (Shelton et al., 1995)
[9]; 1 μg/ml antagonist, 10 ng/ml BDNF, FIG. 3
  inhibition of the survival-promoting effect of BDNF: completely abolished; also recorded: inhibit
[9]; 1 μg/ml antagonist, 10 ng/ml NT-4/5, FIG. 3
  inhibition of the survival-promoting effect of NT-4/5: completely abolished; also recorded: inhibit
[9]
  effect on VGN cultures by themselves (without neurotrophin): did not show detectable effects
  effect of trkB-IgG and trkC-IgG together on the effects of NT-4/5 and NT-3: blocked

## trkC-IgG: trkC-IgG fusion protein, specific antagonist for NT-3 (Shelton et al., 1995)
[9]; 1 μg/ml antagonist, 10 ng/ml NT-3, FIG. 3
  inhibition of the survival-promoting effect of NT-3: inhibited the activity of NT-3; also recorded: inhibit
[9]
  effect on VGN cultures by themselves (without neurotrophin): did not show detectable effects
  effect of trkB-IgG and trkC-IgG together on the effects of NT-4/5 and NT-3: blocked

## βFGF: basic fibroblast growth factor
[2]; 2 days, FIG. 2
  survival-promoting effect on VGNs: not affected; also recorded: did not produce significant effects

B1: NT-4/5: human recombinant neurotrophin-4/5 (Genentech, Inc.), ligand of trkB (protein)
chain: GVSETAPASRRGELAVCDAVSGWVTDRRTAVDLRGREVEVLGEVPAAGGSPLRQYFFETRCKADNAEEGGPGAGGGGCRGVDRRHWVSECKAKQSYVRALTAHAQGRVGWRWIRIDTACVCTLLSRTGRA
[3]; 1 μg/ml or 2 μg/ml cisplatin, 10 ng/ml neurotrophin
  number of surviving VGNs relative to cisplatin alone and to control: higher than the control culture without cisplatin
[3]; 4 μg/ml cisplatin, 10 ng/ml neurotrophin, FIG. 4
  VGN survival: about 60 % of the survival levels of control cultures in the absence of cisplatin
[3]; FIG. 4
  protective effect against cisplatin neurotoxicity: significantly ameliorated the toxic effects of cisplatin; also recorded: very significant protecting effects at all three doses
[3]; [10]
  additive effect, NT-4/5 combined with BDNF, cisplatin culture: no additive effects were observed
  additive effect, NT-4/5 combined with NT-3, cisplatin culture: no additive effects were observed
[6]
  protective effect against gentamicin neurotoxicity: very significant protective effects at all three doses of gentamicin
[6]; culture containing gentamicin
  additive effect, NT-4/5 combined with BDNF, gentamicin culture: no additive effects were observed
  additive effect, NT-4/5 combined with NT-3, gentamicin culture: no additive effects were observed
[2]; 2 days, FIG. 2
  survival-promoting effect on VGNs: very significant survival promoting effects
[2]; 10 ng/ml, FIG. 2
  additive/synergistic effect on VGN survival, NT-4/5 combined with BDNF: no synergistic effects were observed
  additive/synergistic effect on VGN survival, NT-4/5 combined with NT-3: no synergistic effects were observed
[2]; NT-4/5 at different concentrations, 2 days, FIG. 1
  survival-promoting effect on VGNs over the dose range: dose-dependent; also recorded: very significant survival-promoting effects
[2]; doses from 0.1 to 50 ng/ml examined, FIG. 1
  concentration of maximal survival-promoting effect: 10 ng/mL

B2: E92A: NT-3 mutant with mutation at position E92 to alanine (protein, UniProt P20783 139-257, looked up, variant E92A)
Neurotrophin-3: YAEHKSHRGEYSVCDSESLWVTDKSSAIDIRGHQVTVLGEIKTGNSPVKQYFYETRCKEARPVKNGCRGIDDKHWNSQCKTSQTYVRALTSANNKLVGWRWIRIDTSCVCALSRKIGRT
[4]
  trkC binding of NT-3 mutants: increased trkC binding

B3: NT-3: human recombinant neurotrophin-3, ligand of trkC (protein)
chain: B2 Neurotrophin-3 with A92E, C110S
[3]; FIG. 4
  protective effect against cisplatin neurotoxicity: Significant protective, but less potent effects; also recorded: very significant protecting effects at all three doses
[6]
  protective effect against gentamicin neurotoxicity: significantly protective effect; also recorded: very significant protective effects at all three doses of gentamicin
[2]; 2 days, FIG. 2
  survival-promoting effect on VGNs: significant effect (p<0.01) but was less potent than NT-4/5 and BDNF; also recorded: very significant survival promoting effects

B4: BDNF: human recombinant brain-derived neurotrophic factor, ligand of trkB (protein)
chain: HSDPARRGELSVCDSISEWVTAADKKTAVDMSGGTVTVLEKVPVSKGQLKQYFYETKCNPMGYTKEGCRGIDKRHWNSQCRTTQSYVRALTMDSKKRIGWRFIRIDTSCVTLTIKRGR
[3]; FIG. 4
  protective effect against cisplatin neurotoxicity: equivalent effectiveness; also recorded: very significant protecting effects at all three doses
[6]
  protective effect against gentamicin neurotoxicity: an effect equivalent to NT-4/5; also recorded: very significant protective effects at all three doses of gentamicin
[2]; 2 days, FIG. 2
  survival-promoting effect on VGNs: equivalent to NT-4/5; also recorded: very significant survival promoting effects
[2]; P5 rat VGNs, 2 days in serum-free medium, versus control culture without neurotrophin
  increase in the number of surviving VGNs: 2 fold
